The term stoichiometry N denotes the number of molecules, sites or subunits per partner or assembly.

Data set [1] deals with C-terminal domain of vaccinia virus C16 (vaccinia virus strain Western Reserve (WR)) (UniProt P03296). The data set is described as follows: SEC; C16-C alone. A general note: Size exclusion chromatography separates by hydrodynamic size, large species first.
Data set [2] concerns the target vaccinia virus protein C4, full length, from baculovirus (vaccinia virus strain Western Reserve (WR)). The data set is described as follows: SEC.
Data set [3] deals with the molecule itself. The experiment in a line: SEC.
Data set [4] deals with the molecule itself. The data set is described as follows: mass photometry; purified recombinant C16 alone.

“C-terminal domain of vaccinia virus C16 (from UniProt P03296) (domain or fragment)” displayed a stoichiometry N in data set [1] of 2.

“vaccinia virus protein C4, full length, from baculovirus (natural protein)” came in with a stoichiometry N in data set [2] of 2.

B1: vaccinia virus (strain Western Reserve) protein C16, full length, from E. coli (natural protein)
chain: MDIYDDKGLQTIKLFNNEFDCIRNDIRELFKHVTDSDSIQLPMEDNSDIIENIRKILYRRLKNVECVDIDSTITFMKYDPNDDNKRTCSNWVPLTNNYMEYCLVIYLETPICGGKIKLYHPTGNIKSDKDIMFAKTLDFKSKKVLTGRKTIAVLDISVSYNRSMTTIHYNDDVDIDIHTDKNGKELCYCYITIDDHYLVDVETIGVIVNRSGKCLLVNNHLGIGIVKDKRISDSFGDVCMDTIFDFSEARELFSLTNDDNRNIAWDTDKLDDDTDIWTPVTEDDYKFLSRLVLYAKSQSDTVFDYYVLTGDTEPPTVFIFKVTRFYFNMPK
notes: also called VACV-C16; FLC16
As to B1, the “stoichiometry N” value in data set [3] turned out to be 2; in data set [4], 4.
